# Experimental data as given in patent US20090105152A1.
# Numbered stars: 1 amine (or outer) side, 2 acyl side, 3 side chain; on linkers, the order of the positions; unused ones are H or OH. Square brackets hold non-standard residues; d marks the D form. Hyp(Bzl) = O-benzyl-trans-4-hydroxyproline, O=C([C@@H]1C[C@@H](OCc2ccccc2)CN1[*:1])[*:2]; Asp(NHcPr) = N-omega-cyclopropylasparagine, O=C(C[C@H](N[*:1])C(=O)[*:2])NC1CC1; Asp(NHPen) = N-omega-pentylasparagine, CCCCCNC(=O)C[C@H](N[*:1])C(=O)[*:2]; Pro(4S-NH2) = N[C@@H]1CN[C@H](C(=O)O)C1; Phe(3-F) = N[C@@H](Cc1cccc(F)c1)C(=O)O; Phe(4-F) = N[C@@H](Cc1ccc(F)cc1)C(=O)O; Phe(2-F) = N[C@@H](Cc1ccccc1F)C(=O)O; Arg(Me) = CNC(=N)NCCC[C@H](N)C(=O)O; Dap(CONH2) = NC(=O)NC[C@H](N)C(=O)O; Hyp = O=C(O)[C@@H]1C[C@@H](O)CN1; dNMeF = CN[C@H](Cc1ccccc1)C(=O)O; NMeS = CN[C@@H](CO)C(=O)O; Aib = CC(C)(N)C(=O)O; azaGly = NNC(=O)O
# Target: human OT7T175 (metastin receptor) (human) (UniProt Q969F8)
# Assay: cell-based or functional assay
# human OT7T175 (metastin receptor) (human), sequence (Q969F8 whole entry L364H): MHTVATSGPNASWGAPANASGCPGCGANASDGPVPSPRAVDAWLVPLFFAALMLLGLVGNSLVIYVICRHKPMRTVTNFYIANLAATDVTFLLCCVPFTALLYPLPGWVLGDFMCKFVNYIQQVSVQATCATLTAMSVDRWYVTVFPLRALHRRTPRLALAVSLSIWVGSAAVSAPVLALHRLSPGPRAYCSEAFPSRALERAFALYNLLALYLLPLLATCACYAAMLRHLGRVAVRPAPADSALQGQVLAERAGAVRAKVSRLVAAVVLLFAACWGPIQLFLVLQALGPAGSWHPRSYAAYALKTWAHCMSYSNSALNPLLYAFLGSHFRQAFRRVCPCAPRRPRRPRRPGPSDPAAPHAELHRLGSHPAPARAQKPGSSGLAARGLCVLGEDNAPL
row,Binder,intracellular Ca ion level-increasing activity [specific activity to Metastin (1-54)] (relative to Metastin (1-54))
1,"Ac-[dY][Hyp]N[NMeS]F[azaGly]L[Arg(Me)]W-NH2 (SMILES CNC(=N)NCCC[C@H](NC(=O)[C@H](CC(C)C)NC(=O)NNC(=O)[C@H](Cc1ccccc1)NC(=O)[C@H](CO)N(C)C(=O)[C@H](CC(N)=O)NC(=O)[C@@H]1C[C@@H](O)CN1C(=O)[C@@H](Cc1ccc(O)cc1)NC(C)=O)C(=O)N[C@@H](Cc1c[nH]c2ccccc12)C(N)=O) [des(1)-Ac-[D-Tyr2,Hyp3,NMeSer5,AzaGly7,Arg(Me)9,Trp10]MS10]",1
2,"Ac-[dY][Hyp]NT[Phe(4-F)][azaGly]L[Arg(Me)]W-NH2 (SMILES CNC(=N)NCCC[C@H](NC(=O)[C@H](CC(C)C)NC(=O)NNC(=O)[C@H](Cc1ccc(F)cc1)NC(=O)[C@@H](NC(=O)[C@H](CC(N)=O)NC(=O)[C@@H]1C[C@@H](O)CN1C(=O)[C@@H](Cc1ccc(O)cc1)NC(C)=O)[C@@H](C)O)C(=O)N[C@@H](Cc1c[nH]c2ccccc12)C(N)=O) [des(1)-Ac-[D-Tyr2,Hyp3,Thr5,Phe(4F)6,AzaGly7,Arg(Me)9,Trp10]MS10]",2.3
3,"Ac-[dY][Hyp]NTF[azaGly]LRW-NH2 (SMILES CC(=O)N[C@H](Cc1ccc(O)cc1)C(=O)N1C[C@H](O)C[C@H]1C(=O)N[C@@H](CC(N)=O)C(=O)N[C@H](C(=O)N[C@@H](Cc1ccccc1)C(=O)NNC(=O)N[C@@H](CC(C)C)C(=O)N[C@@H](CCCNC(=N)N)C(=O)N[C@@H](Cc1c[nH]c2ccccc12)C(N)=O)[C@@H](C)O) [des(1)-Ac-[D-Tyr2,Hyp3,Thr5,AzaGly7,Trp10]MS10]",1.4
4,"Ac-[dY]ENT[Phe(4-F)][azaGly]L[Arg(Me)]W-NH2 (SMILES CNC(=N)NCCC[C@H](NC(=O)[C@H](CC(C)C)NC(=O)NNC(=O)[C@H](Cc1ccc(F)cc1)NC(=O)[C@@H](NC(=O)[C@H](CC(N)=O)NC(=O)[C@H](CCC(=O)O)NC(=O)[C@@H](Cc1ccc(O)cc1)NC(C)=O)[C@@H](C)O)C(=O)N[C@@H](Cc1c[nH]c2ccccc12)C(N)=O) [des(1)-Ac-[D-Tyr2,Glu3,Thr5,Phe(4F)6,AzaGly7,Arg(Me)9,Trp10]MS10]",2.7
5,"Ac-[dY][Pro(4S-NH2)]NTF[azaGly]L[Arg(Me)]W-NH2 (SMILES CNC(=N)NCCC[C@H](NC(=O)[C@H](CC(C)C)NC(=O)NNC(=O)[C@H](Cc1ccccc1)NC(=O)[C@@H](NC(=O)[C@H](CC(N)=O)NC(=O)[C@@H]1C[C@H](N)CN1C(=O)[C@@H](Cc1ccc(O)cc1)NC(C)=O)[C@@H](C)O)C(=O)N[C@@H](Cc1c[nH]c2ccccc12)C(N)=O) [des(1)-Ac-[D-Tyr2,Pro(4NH2)3,Thr5,AzaGly7,Arg(Me)9,Trp10]MS10]",2.1
6,"Ac-[dY][dNMeF]NTF[azaGly]L[Arg(Me)]W-NH2 (SMILES CNC(=N)NCCC[C@H](NC(=O)[C@H](CC(C)C)NC(=O)NNC(=O)[C@H](Cc1ccccc1)NC(=O)[C@@H](NC(=O)[C@H](CC(N)=O)NC(=O)[C@@H](Cc1ccccc1)N(C)C(=O)[C@@H](Cc1ccc(O)cc1)NC(C)=O)[C@@H](C)O)C(=O)N[C@@H](Cc1c[nH]c2ccccc12)C(N)=O) [des(1)-Ac-[D-Tyr2,D-NMePhe3,Thr5,AzaGly7,Arg(Me)9,Trp10]MS10]",1.8
7,"Ac-[dY]GNT[Phe(2-F)][azaGly]L[Arg(Me)]W-NH2 (SMILES CNC(=N)NCCC[C@H](NC(=O)[C@H](CC(C)C)NC(=O)NNC(=O)[C@H](Cc1ccccc1F)NC(=O)[C@@H](NC(=O)[C@H](CC(N)=O)NC(=O)CNC(=O)[C@@H](Cc1ccc(O)cc1)NC(C)=O)[C@@H](C)O)C(=O)N[C@@H](Cc1c[nH]c2ccccc12)C(N)=O) [des(1)-Ac-[D-Tyr2,Gly3,Thr5,Phe(2F)6,AzaGly7,Arg(Me)9,Trp10]MS10]",8.8
8,"Ac-[dY][dW][Asp(NHPen)]TF[azaGly]L[Arg(Me)]W-NH2 (SMILES CCCCCNC(=O)C[C@H](NC(=O)[C@@H](Cc1c[nH]c2ccccc12)NC(=O)[C@@H](Cc1ccc(O)cc1)NC(C)=O)C(=O)N[C@H](C(=O)N[C@@H](Cc1ccccc1)C(=O)NNC(=O)N[C@@H](CC(C)C)C(=O)N[C@@H](CCCNC(=N)NC)C(=O)N[C@@H](Cc1c[nH]c2ccccc12)C(N)=O)[C@@H](C)O) [des(1)-Ac-[D-Tyr2,D-Trp3,Asp(NHPen)4,Thr5,AzaGly7,Arg(Me)9,Trp10]MS10]",0.7
9,"Ac-[dY]GNT[Phe(4-F)][azaGly]L[Arg(Me)]W-NH2 (SMILES CNC(=N)NCCC[C@H](NC(=O)[C@H](CC(C)C)NC(=O)NNC(=O)[C@H](Cc1ccc(F)cc1)NC(=O)[C@@H](NC(=O)[C@H](CC(N)=O)NC(=O)CNC(=O)[C@@H](Cc1ccc(O)cc1)NC(C)=O)[C@@H](C)O)C(=O)N[C@@H](Cc1c[nH]c2ccccc12)C(N)=O) [des(1)-Ac-[D-Tyr2,Gly3,Thr5,Phe(4F)6,AzaGly7,Arg(Me)9,Trp10]MS10]",2.3
10,"Ac-[dY][Hyp(Bzl)]NTF[azaGly]L[Arg(Me)]W-NH2 (SMILES CNC(=N)NCCC[C@H](NC(=O)[C@H](CC(C)C)NC(=O)NNC(=O)[C@H](Cc1ccccc1)NC(=O)[C@@H](NC(=O)[C@H](CC(N)=O)NC(=O)[C@@H]1C[C@@H](OCc2ccccc2)CN1C(=O)[C@@H](Cc1ccc(O)cc1)NC(C)=O)[C@@H](C)O)C(=O)N[C@@H](Cc1c[nH]c2ccccc12)C(N)=O) [des(1)-Ac-[D-Tyr2,Hyp(Bzl)3,Thr5,AzaGly7,Arg(Me)9,Trp10]MS10]",1
11,"Ac-[dY][Hyp]NT[dF][azaGly]L[Arg(Me)]W-NH2 [des(1)-Ac-[D-Tyr2,Hyp3,Thr5,D-Phe6,AzaGly7,Arg(Me)9,Trp10]MS10]",2.3
12,"Ac-[dY][dW][Asp(NHcPr)]TF[azaGly]L[Arg(Me)]W-NH2 (SMILES CNC(=N)NCCC[C@H](NC(=O)[C@H](CC(C)C)NC(=O)NNC(=O)[C@H](Cc1ccccc1)NC(=O)[C@@H](NC(=O)[C@H](CC(=O)NC1CC1)NC(=O)[C@@H](Cc1c[nH]c2ccccc12)NC(=O)[C@@H](Cc1ccc(O)cc1)NC(C)=O)[C@@H](C)O)C(=O)N[C@@H](Cc1c[nH]c2ccccc12)C(N)=O) [des(1)-Ac-[D-Tyr2,D-Trp3,Asp(NHcPr)4,Thr5,AzaGly7,Arg(Me)9,Trp10]MS10]",1.6
13,"Ac-[dY][Hyp][Dap(CONH2)]TF[azaGly]L[Arg(Me)]W-NH2 (SMILES CNC(=N)NCCC[C@H](NC(=O)[C@H](CC(C)C)NC(=O)NNC(=O)[C@H](Cc1ccccc1)NC(=O)[C@@H](NC(=O)[C@H](CNC(N)=O)NC(=O)[C@@H]1C[C@@H](O)CN1C(=O)[C@@H](Cc1ccc(O)cc1)NC(C)=O)[C@@H](C)O)C(=O)N[C@@H](Cc1c[nH]c2ccccc12)C(N)=O) [des(1)-Ac-[D-Tyr2,Hyp3,Alb4,Thr5,AzaGly7,Arg(Me)9,Trp10]MS10]",0.8
14,"{4‑(bis-(2-pyridylmethyl)aminomethyl)benzoyl}-F[azaGly]L[Arg(Me)]W-NH2 [des(1-5)-4-[Bis-(2-Pyridylmethyl)aminomethyl]benzoyl-[AzaGly7,Arg(Me)9,Trp10]MS10]",11.1
15,"Ac-[dY][Aib]NT[Phe(3-F)][azaGly]L[Arg(Me)]W-NH2 (SMILES CNC(=N)NCCC[C@H](NC(=O)[C@H](CC(C)C)NC(=O)NNC(=O)[C@H](Cc1cccc(F)c1)NC(=O)[C@@H](NC(=O)[C@H](CC(N)=O)NC(=O)C(C)(C)NC(=O)[C@@H](Cc1ccc(O)cc1)NC(C)=O)[C@@H](C)O)C(=O)N[C@@H](Cc1c[nH]c2ccccc12)C(N)=O) [des(1)-Ac-[D-Tyr2,Aib3,Thr5,Phe(3F)6,AzaGly7,Arg(Me)9,Trp10]MS10]",3.3
16,"Ac-[dY]GNT[Phe(3-F)][azaGly]L[Arg(Me)]W-NH2 (SMILES CNC(=N)NCCC[C@H](NC(=O)[C@H](CC(C)C)NC(=O)NNC(=O)[C@H](Cc1cccc(F)c1)NC(=O)[C@@H](NC(=O)[C@H](CC(N)=O)NC(=O)CNC(=O)[C@@H](Cc1ccc(O)cc1)NC(C)=O)[C@@H](C)O)C(=O)N[C@@H](Cc1c[nH]c2ccccc12)C(N)=O) [des(1)-Ac-[D-Tyr2,Gly3,Thr5,Phe(3F)6,AzaGly7,Arg(Me)9,Trp10]MS10]",3.2
17,"Ac-[dY]KNT[Phe(4-F)][azaGly]L[Arg(Me)]W-NH2 (SMILES CNC(=N)NCCC[C@H](NC(=O)[C@H](CC(C)C)NC(=O)NNC(=O)[C@H](Cc1ccc(F)cc1)NC(=O)[C@@H](NC(=O)[C@H](CC(N)=O)NC(=O)[C@H](CCCCN)NC(=O)[C@@H](Cc1ccc(O)cc1)NC(C)=O)[C@@H](C)O)C(=O)N[C@@H](Cc1c[nH]c2ccccc12)C(N)=O) [des(1)-Ac-[D-Tyr2,Lys3,Thr5,Phe(4F)6,AzaGly7,Arg(Me)9,Trp10]MS10]",3.4
18,"Ac-[dY][Aib]NT[Phe(2-F)][azaGly]L[Arg(Me)]W-NH2 (SMILES CNC(=N)NCCC[C@H](NC(=O)[C@H](CC(C)C)NC(=O)NNC(=O)[C@H](Cc1ccccc1F)NC(=O)[C@@H](NC(=O)[C@H](CC(N)=O)NC(=O)C(C)(C)NC(=O)[C@@H](Cc1ccc(O)cc1)NC(C)=O)[C@@H](C)O)C(=O)N[C@@H](Cc1c[nH]c2ccccc12)C(N)=O) [des(1)-Ac-[D-Tyr2,Aib3,Thr5,Phe(2F)6,AzaGly7,Arg(Me)9,Trp10]MS10]",3.4
19,"Ac-[dY][Aib]NT[Phe(4-F)][azaGly]L[Arg(Me)]W-NH2 (SMILES CNC(=N)NCCC[C@H](NC(=O)[C@H](CC(C)C)NC(=O)NNC(=O)[C@H](Cc1ccc(F)cc1)NC(=O)[C@@H](NC(=O)[C@H](CC(N)=O)NC(=O)C(C)(C)NC(=O)[C@@H](Cc1ccc(O)cc1)NC(C)=O)[C@@H](C)O)C(=O)N[C@@H](Cc1c[nH]c2ccccc12)C(N)=O) [des(1)-Ac-[D-Tyr2,Aib3,Thr5,Phe(4F)6,AzaGly7,Arg(Me)9,Trp10]MS10]",2.9
